# Source: patent US20200332017A1 (SALUBRIS CHENGDU BIOTECH, published 2020)
# B1: mouse anti-CD40 monoclonal antibody C1C1 (antibody, V domains shown)
# VH: EVKLVESGGGLVKPGASLKLSCAASGFTFSNYGMSWVRQNSDKRLEWVASISSGGDDTYYPDNVKGRCTISRENAKNTLYLEMSSLKTEDTALYYCTRAGGKAMDYWGQGTSVTVST
# VL: DIVLTQSPATLSVIPGNSVSLSCRASQSIRDNLHWYQQKSHESPRLLINYASQSISGIPSRFSGSGSGTDFTLTINSVETEDFGIYFCQQFNSWPLTFGGGTKLELK
# notes: those are used here for the chimeric antibody only; also called Mouse C1C1; mouse C1C1
# B2: chimeric antibody C1C1 (antibody, human IgG1, kappa, V domains shown)
# VH: B1 VH
# VL: DIVLTQSPATLSVIPGNSVSLSCRASQSIRDNLHWYQQKSHESPRLLINYASQSISGIPSRFSGSGSGTDFTLTINSVETEDFGIYFCQQFNSWPLTFGGGTKLELKR
# notes: also called chC1C1; chimeric C1C1
# Legend:
# [1] = target: T1, full length human CD40 (uniprot # P25942-1) on the membrane of 293T-CD40 cells (human, UniProt P25942 21-277); assay: cell-based or functional assay
# [2] = target: T1, full length human CD40 (uniprot # …); assay: flow cytometry on 293T-CD40 cells
# Procedure: 2×10⁵ cells per well in 96 well-plates were incubated with the mouse anti-CD40 antibodies or the controls of various concentrations in FACS buffer for 40 minutes on ice. […] Following an incubation of 40 minutes at 4° C. in dark, cells were washed three times and resuspended in FACS buffer. Fluorescence was measured using a Becton Dickinson FACS Canto II-HTS equipment and plotted against antibody concentration.
# [3] = target: T2, human CD40-Fc protein (amino acid residue 21-193 of SEQ ID NO: 67 linked to N-terminus of amino acid residue … (human, biotin-labeled in the capture ELISA and in the benchmark blocking ELISA; unlabeled when coated in the ligand blocking ELISA); assay: capture ELISA (antibody captured on coated goat anti-human IgG F(ab')2, biotin-labeled human CD40-Fc in solution, streptavidin-HRP, OD(450-630))
# T2 construct: also called biotin-labeled human CD40-Fc; human CD40-Fc-biotin
# T2 sequence (chain, as listed by the source): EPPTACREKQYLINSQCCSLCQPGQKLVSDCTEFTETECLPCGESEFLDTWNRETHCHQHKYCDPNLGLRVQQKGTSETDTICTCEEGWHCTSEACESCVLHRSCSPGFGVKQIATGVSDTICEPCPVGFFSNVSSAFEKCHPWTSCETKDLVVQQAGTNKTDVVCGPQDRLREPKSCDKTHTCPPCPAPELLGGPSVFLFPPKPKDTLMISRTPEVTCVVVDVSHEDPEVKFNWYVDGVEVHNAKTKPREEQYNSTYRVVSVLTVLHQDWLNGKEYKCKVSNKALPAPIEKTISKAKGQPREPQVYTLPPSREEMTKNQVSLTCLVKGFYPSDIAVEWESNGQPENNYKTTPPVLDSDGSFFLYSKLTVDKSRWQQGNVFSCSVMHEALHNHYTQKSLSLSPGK
# T1 sequence (P25942 21-277 limits assumed, one chain of several): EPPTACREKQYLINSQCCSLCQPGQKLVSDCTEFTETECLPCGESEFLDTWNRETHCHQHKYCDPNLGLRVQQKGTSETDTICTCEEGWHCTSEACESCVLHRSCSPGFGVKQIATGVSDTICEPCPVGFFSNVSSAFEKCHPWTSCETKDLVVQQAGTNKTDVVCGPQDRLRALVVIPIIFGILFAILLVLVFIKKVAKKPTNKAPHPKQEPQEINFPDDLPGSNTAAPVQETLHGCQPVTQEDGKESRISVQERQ
Binder,"Cell-based Reporter assay (EC50, nM) [1]",EC50 [2],EC50 (read off the curve) [3]
B1,3.65 nM,0.538 nM,–
B2,–,–,~0.03 µg/mL
